Assay results from paper PMC8464830 (Biomolecules, 2021).

Molecular target: T1, human Calmodulin-1 (human, UniProt P0DP23 1-149)
T1 construct: also called hCaM-1; hCaM
Assay: SPR
Settings: both partners purified

B1: HIV-1 MA clade C (92BR025.8) construct with residue 1-109, lacking the C-terminal helix α5 (domain or fragment)
chain: MGARASILRGGKLDAWERIKLKPGGKKHYMMKHLVWASRELERFALDPGLLETSEGCKQIMKQLQPALQTGTKELISLHNTVATLYCVHEKIDVRDTKEALDKIKEEQN
B1: binds.
